Assay results reported in PMC9832388, “A novel method for real-time analysis of the complement C3b:FH:FI complex reveals dominant negative CFI variants in age-related macular degeneration” (Frontiers in Immunology, 2022).

Target: C3b (UniProt P01024 23-667; P01024 749-1663)
Experiment: cell-based or functional assay

Chain of C3b (P01024 23-667, chain 1 of 2): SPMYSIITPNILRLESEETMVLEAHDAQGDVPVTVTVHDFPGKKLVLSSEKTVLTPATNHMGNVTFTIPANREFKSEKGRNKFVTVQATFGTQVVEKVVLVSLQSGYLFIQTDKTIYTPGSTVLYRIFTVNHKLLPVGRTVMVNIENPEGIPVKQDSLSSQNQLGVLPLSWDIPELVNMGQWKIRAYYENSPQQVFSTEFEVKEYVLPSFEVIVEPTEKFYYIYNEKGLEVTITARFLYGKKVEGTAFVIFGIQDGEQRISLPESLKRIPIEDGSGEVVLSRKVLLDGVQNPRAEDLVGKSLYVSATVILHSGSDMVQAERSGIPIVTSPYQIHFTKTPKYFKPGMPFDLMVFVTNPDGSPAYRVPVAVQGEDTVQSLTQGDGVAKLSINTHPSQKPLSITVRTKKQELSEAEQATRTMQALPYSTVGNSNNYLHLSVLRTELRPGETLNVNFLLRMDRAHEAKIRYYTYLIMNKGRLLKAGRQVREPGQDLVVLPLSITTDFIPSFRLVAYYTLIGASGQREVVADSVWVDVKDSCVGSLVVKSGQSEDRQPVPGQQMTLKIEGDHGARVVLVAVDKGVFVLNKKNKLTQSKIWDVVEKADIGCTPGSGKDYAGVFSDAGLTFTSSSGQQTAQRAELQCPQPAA
Chain of C3b (P01024 749-1663, chain 2 of 2): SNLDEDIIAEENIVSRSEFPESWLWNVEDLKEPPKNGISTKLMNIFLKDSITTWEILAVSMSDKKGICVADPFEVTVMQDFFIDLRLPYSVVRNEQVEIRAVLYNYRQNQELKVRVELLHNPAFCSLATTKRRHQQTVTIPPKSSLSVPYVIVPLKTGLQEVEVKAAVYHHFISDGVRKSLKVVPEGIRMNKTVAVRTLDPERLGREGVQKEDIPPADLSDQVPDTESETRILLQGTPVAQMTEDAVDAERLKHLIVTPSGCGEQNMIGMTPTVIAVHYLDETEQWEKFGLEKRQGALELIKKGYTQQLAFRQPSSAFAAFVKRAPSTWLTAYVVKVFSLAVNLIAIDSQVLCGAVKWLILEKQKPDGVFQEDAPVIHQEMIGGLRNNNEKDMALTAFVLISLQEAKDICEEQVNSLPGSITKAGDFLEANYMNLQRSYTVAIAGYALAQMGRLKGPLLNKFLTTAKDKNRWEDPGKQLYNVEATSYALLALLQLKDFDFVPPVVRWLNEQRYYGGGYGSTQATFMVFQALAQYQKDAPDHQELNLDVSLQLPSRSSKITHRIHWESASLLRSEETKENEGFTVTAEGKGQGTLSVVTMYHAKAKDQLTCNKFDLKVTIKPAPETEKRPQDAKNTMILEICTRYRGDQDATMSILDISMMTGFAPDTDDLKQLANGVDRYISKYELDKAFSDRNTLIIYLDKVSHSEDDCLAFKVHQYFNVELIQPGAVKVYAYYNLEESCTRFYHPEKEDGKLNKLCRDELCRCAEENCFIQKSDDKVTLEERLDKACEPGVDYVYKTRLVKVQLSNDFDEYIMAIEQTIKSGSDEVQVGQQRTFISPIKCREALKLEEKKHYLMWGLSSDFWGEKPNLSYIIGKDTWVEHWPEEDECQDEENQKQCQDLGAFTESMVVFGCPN

B1: I340T FI (enzyme, human)
chain 1: KVTYTSQEDLVEKKCLAKKYTHLSCDKVFCQPWQRCIEGTCVCKLPYQCPKNGTAVCATNRRSFPTYCQQKSLECLHPGTKFLNNGTCTAEGKFSVSLKHGNTDSEGIVEVKLVDQDKTMFICKSSWSMREANVACLDLGFQQGADTQRRFKLSDLSINSTECLHVHCRGLETSLAECTFTKRRTMGYQDFADVVCYTQKADSPMDDFFQCVNGKYISQMKACDGINDCGDQSDELCCKACQGKGFHCKSGVCIPSQYQCNGEVDCITGEDEVGCAGFASVTQEETEILTADMDAERRRIKSLLPKLSCGVKNRMHI
chain 2: TVGGKRAQLGDLPWQVAIKDASGITCGGIYIGGCWILTAAHCLRASKTHRYQIWTTVVDWIHPDLKRIVIEYVDRIIFHENYNAGTYQNDIALIEMKKDGNKKDCELPRSIPACVPWSPYLFQPNDTCIVSGWGREKDNERVFSLQWGEVKLISNCSKFYGNRFYEKEMECAGTYDGSIDACKGDSGGPLVCMDANNVTYVWGVVSWGENCGKPEFPGVYTKVANYFDWISYHVGRPFISQYNV
- inhibition of the activity of WT FI in a fluid phase CA assay with increasing I340T FI (~25% at equimolar, 30% at 2-fold molar): 30%
